Assay results reported in the supplement of paper PMC9876800.

System: peptide library, one residue held at a place counted from the S/T acceptor
Assay: relative phosphorylation of the sub-library (ratio to the mean residue at this position); higher = residue favoured
Details: human
Procedure, shortened: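 Purified recombinant kinases (human or orthologue constructs) were incubated in 384-well plates with biotinylated degenerate peptide sub-libraries, each fixing one residue at one position around a central Ser/Thr. Peptides were at 50 μM, with 50 μM ATP spiked with γ-32P-ATP, for 90 min under kinase-specific conditions. Spots on streptavidin membranes were phosphorimaged and quantified by densitometry. Relative sub-library phosphorylation is a ratio to the mean residue at that position.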

Chain of STK26, construct: Full length (Q9P289 whole entry, looked up): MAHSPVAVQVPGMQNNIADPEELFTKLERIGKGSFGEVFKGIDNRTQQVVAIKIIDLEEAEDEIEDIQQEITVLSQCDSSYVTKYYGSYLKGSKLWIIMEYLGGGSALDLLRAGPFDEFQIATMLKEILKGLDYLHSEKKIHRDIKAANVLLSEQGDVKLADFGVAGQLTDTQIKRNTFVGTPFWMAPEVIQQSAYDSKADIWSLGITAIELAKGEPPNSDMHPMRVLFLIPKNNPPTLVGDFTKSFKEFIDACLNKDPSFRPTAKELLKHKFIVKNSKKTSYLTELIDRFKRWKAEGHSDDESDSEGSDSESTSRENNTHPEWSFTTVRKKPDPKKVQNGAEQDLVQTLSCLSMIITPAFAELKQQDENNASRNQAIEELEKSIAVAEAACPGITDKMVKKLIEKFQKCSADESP
Chain of SIK2, construct: Full length (Q9H0K1 whole entry, looked up): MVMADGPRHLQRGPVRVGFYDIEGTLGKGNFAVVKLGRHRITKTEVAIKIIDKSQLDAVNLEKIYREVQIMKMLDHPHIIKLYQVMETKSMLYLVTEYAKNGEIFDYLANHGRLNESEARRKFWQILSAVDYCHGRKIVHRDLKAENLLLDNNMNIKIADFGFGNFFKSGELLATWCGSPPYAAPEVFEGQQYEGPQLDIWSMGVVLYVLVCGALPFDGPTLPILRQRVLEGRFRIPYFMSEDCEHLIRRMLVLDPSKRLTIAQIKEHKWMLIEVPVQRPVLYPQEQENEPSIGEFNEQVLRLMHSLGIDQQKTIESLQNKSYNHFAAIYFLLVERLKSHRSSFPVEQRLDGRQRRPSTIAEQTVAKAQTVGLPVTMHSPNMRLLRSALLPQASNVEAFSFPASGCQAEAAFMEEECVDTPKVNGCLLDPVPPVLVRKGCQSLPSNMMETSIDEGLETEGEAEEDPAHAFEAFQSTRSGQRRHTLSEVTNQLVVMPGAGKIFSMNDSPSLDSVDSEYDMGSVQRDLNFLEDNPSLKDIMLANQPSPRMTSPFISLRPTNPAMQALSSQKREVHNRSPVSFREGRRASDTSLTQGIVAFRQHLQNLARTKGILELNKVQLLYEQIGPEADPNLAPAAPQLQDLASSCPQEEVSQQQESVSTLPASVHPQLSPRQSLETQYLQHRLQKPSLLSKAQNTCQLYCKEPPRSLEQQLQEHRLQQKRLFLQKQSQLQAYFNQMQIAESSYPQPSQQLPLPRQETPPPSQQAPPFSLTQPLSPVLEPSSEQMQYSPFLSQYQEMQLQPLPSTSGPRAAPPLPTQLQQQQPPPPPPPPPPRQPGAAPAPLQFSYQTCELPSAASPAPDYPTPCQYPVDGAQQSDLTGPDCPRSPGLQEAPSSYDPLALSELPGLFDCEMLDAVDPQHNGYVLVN
Chain of SGK1, construct: aa61-end (O00141 61-431, looked up): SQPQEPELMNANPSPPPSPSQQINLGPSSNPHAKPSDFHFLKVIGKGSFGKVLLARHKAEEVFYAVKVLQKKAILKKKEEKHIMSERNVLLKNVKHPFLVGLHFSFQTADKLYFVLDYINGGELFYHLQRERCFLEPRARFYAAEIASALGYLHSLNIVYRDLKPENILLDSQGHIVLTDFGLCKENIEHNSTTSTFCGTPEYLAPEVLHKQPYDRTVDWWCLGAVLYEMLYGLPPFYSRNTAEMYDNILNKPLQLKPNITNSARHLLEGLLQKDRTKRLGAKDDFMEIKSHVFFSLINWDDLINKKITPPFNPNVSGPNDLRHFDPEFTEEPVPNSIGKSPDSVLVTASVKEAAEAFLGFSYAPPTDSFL

SGK1, construct: aa61-end (from UniProt O00141)
relative phosphorylation
Details | at +1 | at +2 | at +3 | at +4 | at -1 | at -2 | at -3 | at -4 | at -5
A fixed | 0.603 | 1.03 | 0.911 | 1.01 | 0.815 | 1.22 | 0.388 | 1.06 | 0.955
D fixed | 0.457 | 0.581 | 1.1 | 0.881 | 0.63 | 0.242 | 0.147 | 0.679 | 0.427
E fixed | 0.461 | 0.537 | 1.14 | 1.03 | 0.483 | 0.227 | 0.157 | 0.749 | 0.453
F fixed | 2.32 | 0.768 | 0.975 | 0.795 | 0.768 | 0.493 | 0.16 | 0.613 | 0.62
G fixed | 0.766 | 1.06 | 1.33 | 1.17 | 1.73 | 0.758 | 0.268 | 1.04 | 0.948
H fixed | 0.889 | 1.6 | 1.35 | 1.33 | 1.25 | 0.946 | 0.757 | 1.01 | 0.99
I fixed | 1.45 | 1.18 | 0.784 | 0.863 | 0.395 | 0.28 | 0.145 | 0.641 | 0.7
K fixed | 0.861 | 0.906 | 1.17 | 1.05 | 1.38 | 3.57 | 1.4 | 1.98 | 2.38
L fixed | 1.22 | 1.27 | 0.975 | 0.702 | 0.751 | 0.401 | 0.149 | 0.699 | 0.617
M fixed | 1.49 | 0.948 | 0.833 | 0.936 | 1.05 | 0.335 | 0.157 | 0.838 | 0.736
N fixed | 0.881 | 1.13 | 0.976 | 1.22 | 1.52 | 0.55 | 0.245 | 0.825 | 0.852
P fixed | 0.859 | 0.94 | 0.921 | 1.31 | 1.25 | 0.388 | 0.296 | 1.17 | 0.882
Q fixed | 0.974 | 0.674 | 0.939 | 0.921 | 0.893 | 0.544 | 0.443 | 0.902 | 0.744
R fixed | 1.01 | 1.58 | 1.01 | 1.03 | 1.64 | 5.91 | 11.7 | 2.89 | 3.67
V fixed | 1.16 | 1.01 | 0.753 | 0.737 | 0.471 | 0.352 | 0.152 | 0.693 | 0.675
W fixed | 0.7 | 0.737 | 0.892 | 1.1 | 0.692 | 0.332 | 0.225 | 0.59 | 0.626
Y fixed | 0.906 | 1.05 | 0.934 | 0.912 | 1.28 | 0.452 | 0.219 | 0.625 | 0.721
pThr fixed | 0.747 | 0.655 | 0.926 | 1.36 | 0.306 | 0.367 | 0.24 | 0.711 | 0.556
pTyr fixed | 0.806 | 1.04 | 1.43 | 1.54 | 0.752 | 0.319 | 0.232 | 0.574 | 0.722

SIK2, construct: Full length (from UniProt Q9H0K1)
relative phosphorylation
Details | at +1 | at +2 | at +3 | at +4 | at -1 | at -2 | at -3 | at -4 | at -5
A fixed | 0.683 | 0.923 | 0.762 | 0.745 | 0.883 | 1.45 | 0.789 | 0.944 | 0.972
D fixed | 0.42 | 0.461 | 1.59 | 0.353 | 0.463 | 0.232 | 0.255 | 0.57 | 0.48
E fixed | 0.487 | 0.486 | 0.54 | 0.309 | 0.388 | 0.208 | 0.327 | 0.599 | 0.463
F fixed | 1.13 | 0.924 | 1.51 | 0.96 | 0.685 | 1.5 | 0.969 | 0.98 | 1.2
G fixed | 0.622 | 0.518 | 0.556 | 0.631 | 2.45 | 0.96 | 0.658 | 0.991 | 0.89
H fixed | 1.06 | 1.1 | 1.23 | 0.79 | 1.03 | 1.37 | 1.14 | 1.02 | 0.858
I fixed | 1.05 | 0.988 | 0.821 | 2.46 | 0.591 | 0.561 | 0.627 | 0.762 | 1.09
K fixed | 1.18 | 1.19 | 0.856 | 1.11 | 1.65 | 1.26 | 2.14 | 1.56 | 1.5
L fixed | 1.17 | 1.15 | 0.988 | 2.94 | 0.929 | 0.52 | 0.752 | 0.828 | 1.76
M fixed | 1.68 | 0.94 | 0.916 | 1.4 | 1.03 | 0.664 | 0.765 | 1.02 | 1.17
N fixed | 1.03 | 1.03 | 2.08 | 0.635 | 1 | 0.583 | 0.526 | 0.828 | 0.757
P fixed | 0.336 | 0.68 | 0.33 | 0.578 | 0.923 | 0.394 | 0.788 | 0.729 | 0.767
Q fixed | 1.61 | 0.991 | 0.856 | 0.602 | 1.05 | 0.607 | 0.634 | 0.88 | 0.704
R fixed | 1.48 | 1.7 | 1.03 | 0.83 | 1.77 | 1.4 | 3.76 | 2.09 | 1.41
V fixed | 1 | 0.965 | 0.638 | 1.16 | 0.641 | 0.771 | 0.637 | 0.857 | 0.959
W fixed | 0.951 | 1.74 | 1.19 | 0.809 | 0.605 | 2.67 | 1.37 | 1.29 | 1.04
Y fixed | 1.11 | 1.21 | 1.12 | 0.688 | 0.918 | 1.85 | 0.864 | 1.06 | 0.967
pThr fixed | 0.905 | 0.696 | 0.382 | 0.389 | 0.467 | 0.567 | 0.613 | 0.787 | 0.791
pTyr fixed | 0.499 | 0.38 | 0.573 | 0.35 | 0.746 | 0.54 | 0.614 | 0.526 | 0.71

SRPK1, construct: Full length (from UniProt Q96SB4)
relative phosphorylation
Details | at +1 | at +2 | at +3 | at +4 | at -1 | at -2 | at -3 | at -4 | at -5
A fixed | 0.85 | 1.23 | 0.682 | 1.04 | 1.12 | 1.65 | 0.811 | 1.21 | 1.51
D fixed | 0.273 | 1.46 | 0.499 | 1.13 | 0.486 | 1.63 | 0.506 | 0.682 | 0.77
E fixed | 0.377 | 1.33 | 0.412 | 0.886 | 0.589 | 0.981 | 0.363 | 0.734 | 0.686
F fixed | 0.387 | 0.626 | 0.424 | 0.741 | 0.476 | 0.637 | 0.297 | 0.713 | 1
G fixed | 0.942 | 1.03 | 0.911 | 1.12 | 0.959 | 1.34 | 0.634 | 1.14 | 1.28
H fixed | 0.563 | 1.61 | 0.697 | 0.988 | 1.2 | 1.72 | 0.454 | 0.956 | 0.954
I fixed | 0.607 | 0.588 | 0.46 | 0.823 | 0.554 | 0.51 | 0.372 | 0.736 | 0.796
K fixed | 1.55 | 1.14 | 1.43 | 1.47 | 2.19 | 1.34 | 1.02 | 1.61 | 1.58
L fixed | 0.698 | 0.623 | 0.46 | 0.781 | 0.741 | 0.429 | 0.326 | 0.725 | 0.788
M fixed | 0.62 | 0.715 | 0.499 | 0.773 | 0.723 | 0.5 | 0.302 | 0.823 | 0.892
N fixed | 0.613 | 1.15 | 0.796 | 1.05 | 1.02 | 1.19 | 0.433 | 0.962 | 0.867
P fixed | 4.75 | 1.34 | 1.69 | 1.36 | 1.9 | 1.03 | 0.6 | 1.38 | 1.01
Q fixed | 0.932 | 0.981 | 0.699 | 1.1 | 1.16 | 0.692 | 0.596 | 0.87 | 0.675
R fixed | 2.33 | 1.27 | 5.99 | 1.4 | 2.17 | 1.6 | 9.31 | 2.29 | 1.45
V fixed | 0.722 | 0.715 | 0.458 | 0.705 | 0.698 | 0.54 | 0.343 | 0.66 | 0.879
W fixed | 0.417 | 0.582 | 0.452 | 0.886 | 0.42 | 0.616 | 0.312 | 0.735 | 1.04
Y fixed | 0.378 | 0.607 | 0.439 | 0.745 | 0.572 | 0.594 | 0.322 | 0.771 | 0.829
pThr fixed | 0.489 | 1.26 | 0.585 | 1.19 | 0.548 | 0.681 | 0.51 | 0.772 | 0.765
pTyr fixed | 0.462 | 0.95 | 0.653 | 1.06 | 0.753 | 1.39 | 0.694 | 1.43 | 0.947

STK26, construct: Full length (from UniProt Q9P289)
relative phosphorylation
Details | at +1 | at +2 | at +3 | at +4 | at -1 | at -2 | at -3 | at -4 | at -5
A fixed | 0.593 | 0.524 | 0.871 | 0.922 | 0.76 | 0.947 | 0.809 | 1.21 | 1.23
D fixed | 0.265 | 0.606 | 0.583 | 0.538 | 0.894 | 0.424 | 0.625 | 0.745 | 0.706
E fixed | 0.21 | 0.519 | 0.525 | 0.538 | 0.475 | 0.373 | 0.616 | 0.797 | 0.653
F fixed | 1.24 | 0.246 | 0.869 | 0.625 | 0.499 | 0.972 | 0.754 | 0.771 | 0.777
G fixed | 0.583 | 2.19 | 1.44 | 0.991 | 2.31 | 1.21 | 1.09 | 1.09 | 1.03
H fixed | 0.805 | 1.06 | 1 | 1.06 | 1.11 | 1.35 | 1.01 | 1.17 | 1.05
I fixed | 1.56 | 0.511 | 0.798 | 0.971 | 0.397 | 0.759 | 0.711 | 0.83 | 0.929
K fixed | 0.666 | 3.49 | 2.55 | 2.01 | 2.16 | 2.08 | 2.31 | 1.64 | 1.92
L fixed | 1.78 | 0.402 | 1.05 | 0.77 | 0.78 | 0.549 | 0.665 | 0.682 | 0.783
M fixed | 1.3 | 0.358 | 0.667 | 0.818 | 0.666 | 0.613 | 0.79 | 0.773 | 0.74
N fixed | 0.53 | 1.27 | 0.771 | 0.862 | 1.39 | 1.15 | 1.15 | 1.08 | 0.994
P fixed | 0.372 | 1.03 | 0.636 | 0.828 | 0.551 | 0.659 | 0.739 | 0.879 | 0.791
Q fixed | 0.642 | 0.774 | 0.741 | 0.932 | 0.938 | 0.882 | 0.903 | 0.939 | 1
R fixed | 0.722 | 2.77 | 2.16 | 1.89 | 2.15 | 2.03 | 2.21 | 1.64 | 1.61
V fixed | 1.4 | 0.517 | 0.751 | 0.874 | 0.483 | 0.942 | 0.846 | 0.954 | 1.01
W fixed | 3.2 | 0.394 | 0.814 | 1.38 | 0.821 | 1.01 | 0.943 | 0.941 | 0.969
Y fixed | 1.12 | 0.326 | 0.767 | 0.994 | 0.607 | 1.05 | 0.824 | 0.876 | 0.812
pThr fixed | 0.722 | 0.707 | 0.584 | 0.815 | 0.813 | 1.05 | 0.981 | 0.958 | 0.86
pTyr fixed | 0.604 | 0.368 | 0.714 | 0.54 | 1.2 | 1.19 | 0.996 | 0.69 | 0.834
